Assay [1] addresses T1, human TrkB on CHO cells (CHO-K1-hTrkB/pSRE-Luc) (human, UniProt Q16620 32-822). The experiment in a line: cell-based or functional assay.
The target of assay [2] is T2, TrkB-Fc fusion (R&D Systems) (UniProt Q16620 32-430).
T2 construct: the ELISA paragraph says only TrkB-Fc fusion (R&D Systems); also called Human Fc-tagged TrkB; not shown: Fc part of the bought fusion
The experiment in a line: TrkB ELISA, plate coated with TrkB-Fc, detection with anti-BDNF antibody. The protocol: The binding properties of BDNF-containing fusion proteins were determined with a TrkB ELISA. Maxisorb plates were coated with 1 μg/mL of a TrkB-Fc fusion (R&D Systems) in PBS overnight at 4° C. After blocking the plate with PBSTC (PBS with 0.05% Tween-20 and 2% Chicken serum (Gibco)) for 1 h at RT and three washes with PBST, BDNF-containing fusion proteins or BDNF alone were added to the wells at concentrations of 15 to 500 ng/mL in PBSTC and incubated for 2 h at RT. After six washes, the wells were incubated with mouse-anti-BDNF antibody (clone 4F11.1A1, 1 μg/mL in PBSTC) and, after further washes, with anti-mouse-HRP antibody (1:10000 in PBSTC), both for 1 h at RT. After three washes with PBST, HRP activity was detected using ABTS substrate and photometric quantification at a wavelength of 492 nm.

For assay [3], the target named is T1, human TrkB on CHO cells …. The experiment in a line: cell-based or functional assay. This is another data set of the same source.

T2 sequence (Q16620 32-430 limits assumed): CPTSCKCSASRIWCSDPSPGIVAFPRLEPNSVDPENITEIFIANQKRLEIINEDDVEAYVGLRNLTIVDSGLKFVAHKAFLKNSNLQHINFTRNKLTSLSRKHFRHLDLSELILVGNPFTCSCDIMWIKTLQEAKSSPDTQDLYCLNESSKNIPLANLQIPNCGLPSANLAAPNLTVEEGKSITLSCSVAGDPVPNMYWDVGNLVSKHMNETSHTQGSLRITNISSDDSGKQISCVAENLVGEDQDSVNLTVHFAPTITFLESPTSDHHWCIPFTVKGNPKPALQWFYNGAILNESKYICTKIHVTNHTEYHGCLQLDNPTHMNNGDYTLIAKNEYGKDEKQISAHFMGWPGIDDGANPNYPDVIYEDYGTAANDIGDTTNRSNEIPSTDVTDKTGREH
T1 sequence (Q16620 32-822): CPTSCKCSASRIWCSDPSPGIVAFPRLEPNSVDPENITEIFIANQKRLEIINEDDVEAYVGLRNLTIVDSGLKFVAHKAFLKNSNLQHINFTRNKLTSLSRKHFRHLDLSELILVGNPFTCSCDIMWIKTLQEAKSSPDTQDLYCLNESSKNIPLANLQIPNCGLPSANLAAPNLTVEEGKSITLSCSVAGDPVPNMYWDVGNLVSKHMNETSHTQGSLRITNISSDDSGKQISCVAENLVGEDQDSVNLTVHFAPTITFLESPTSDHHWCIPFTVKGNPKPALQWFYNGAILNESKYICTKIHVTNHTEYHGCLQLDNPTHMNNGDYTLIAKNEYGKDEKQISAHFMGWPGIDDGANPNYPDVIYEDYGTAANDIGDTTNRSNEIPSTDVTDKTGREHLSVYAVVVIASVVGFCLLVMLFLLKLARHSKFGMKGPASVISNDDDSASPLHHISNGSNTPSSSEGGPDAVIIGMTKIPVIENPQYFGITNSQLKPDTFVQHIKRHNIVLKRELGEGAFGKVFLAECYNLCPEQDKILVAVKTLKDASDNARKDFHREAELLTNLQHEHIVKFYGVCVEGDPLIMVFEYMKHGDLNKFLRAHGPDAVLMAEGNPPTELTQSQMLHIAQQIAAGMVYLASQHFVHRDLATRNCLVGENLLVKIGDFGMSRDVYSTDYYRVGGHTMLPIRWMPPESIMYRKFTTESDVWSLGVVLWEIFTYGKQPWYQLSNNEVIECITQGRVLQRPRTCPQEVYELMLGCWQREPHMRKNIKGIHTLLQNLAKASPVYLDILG

B1: wild-type BDNF (E. coli) (ligand)
chain: HSDPARRGELSVCDSISEWVTAADKKTAVDMSGGTVTVLEKVPVSKGQLKQYFYETKCNPMGYTKEGCRGIDKRHWNSQCRTTQSYVRALTMDSKKRIGWRFIRIDTSCVCTLTIKRGR
notes: No tag, no linker, RGR not deleted; also called wt-BDNF; non-glycosylated mature wild-type BDNF
For the molecule B1, the “relative BDNF activity in TrkB luciferase assay, EC50 [%]” value in assay [1] amounted to 60%. In assay [2], this molecule displayed a concentration for a half-maximal effect (EC50) of 5.7 nM. Moreover, the “BDNF activity in TrkBluciferase assay, EC50 [% or nM]” value in assay [3] stood at 0.44 nM.

B2: pre-pro-BDNF(-RGD)_(G4S)6GG_VH<IGF-1R>-CH1-His6 with anti-IGF-1R antibody light chain (other)
heavy: HSDPARRGELSVCDSISEWVTAADKKTAVDMSGGTVTVLEKVPVSKGQLKQYFYETKCNPMGYTKEGCRGIDKRHWNSQCRTTQSYVRALTMDSKKRIGWRFIRIDTSCVCTLTIKGGGGSGGGGSGGGGSGGGGSGGGGSGGGGSGGQVELVESGGGVVQPGRSQRLSCAASGFTFSSYGMHWVRQAPGKGLEWVAIIWFDGSSTYYADSVRGRFTISRDNSKNTLYLQMNSLRAEDTAVYFCARELGRRYFDLWGRGTLVSVSSASTKGPSVFPLAPSSKSTSGGTAALGCLVKDYFPEPVTVSWNSGALTSGVHTFPAVLQSSGLYSLSSVVTVPSSSLGTQTYICNVNHKPSNTKVDKKVGSGHHHHHH
light: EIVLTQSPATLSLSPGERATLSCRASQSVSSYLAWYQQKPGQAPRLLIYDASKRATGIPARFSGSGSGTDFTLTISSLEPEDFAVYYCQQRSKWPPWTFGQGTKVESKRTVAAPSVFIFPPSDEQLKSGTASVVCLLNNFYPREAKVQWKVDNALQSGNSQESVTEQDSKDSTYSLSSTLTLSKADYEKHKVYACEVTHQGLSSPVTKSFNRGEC
notes: BDNF part of the entry is the pre-pro precursor
In the case of B2, the EC50 in assay [2] was determined as 18.5 nM.

B3: pre-pro-BDNF(-RGD)_(G4S)2GG_VH<IGF-1R>-CH1-His6 with anti-IGF-1R antibody light chain (other)
heavy: HSDPARRGELSVCDSISEWVTAADKKTAVDMSGGTVTVLEKVPVSKGQLKQYFYETKCNPMGYTKEGCRGIDKRHWNSQCRTTQSYVRALTMDSKKRIGWRFIRIDTSCVCTLTIKGGGGSGGGGSGGQVELVESGGGVVQPGRSQRLSCAASGFTFSSYGMHWVRQAPGKGLEWVAIIWFDGSSTYYADSVRGRFTISRDNSKNTLYLQMNSLRAEDTAVYFCARELGRRYFDLWGRGTLVSVSSASTKGPSVFPLAPSSKSTSGGTAALGCLVKDYFPEPVTVSWNSGALTSGVHTFPAVLQSSGLYSLSSVVTVPSSSLGTQTYICNVNHKPSNTKVDKKVGSGHHHHHH
light: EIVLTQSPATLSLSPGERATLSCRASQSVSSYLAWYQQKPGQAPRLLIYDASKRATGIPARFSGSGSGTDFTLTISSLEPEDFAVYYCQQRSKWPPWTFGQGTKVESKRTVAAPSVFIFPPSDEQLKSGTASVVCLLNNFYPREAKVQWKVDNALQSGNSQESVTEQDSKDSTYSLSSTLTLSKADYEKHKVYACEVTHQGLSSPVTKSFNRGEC
notes: as for B2
As to B3, in assay [2], the 50% effective concentration (EC50) was 17 nM.

B4: pre-pro-BDNF(-RGD)_(G4S)4GG_VH<IGF-1R>-CH1-His6 with anti-IGF-1R antibody light chain (other)
heavy: HSDPARRGELSVCDSISEWVTAADKKTAVDMSGGTVTVLEKVPVSKGQLKQYFYETKCNPMGYTKEGCRGIDKRHWNSQCRTTQSYVRALTMDSKKRIGWRFIRIDTSCVCTLTIKGGGGSGGGGSGGGGSGGGGSGGQVELVESGGGVVQPGRSQRLSCAASGFTFSSYGMHWVRQAPGKGLEWVAIIWFDGSSTYYADSVRGRFTISRDNSKNTLYLQMNSLRAEDTAVYFCARELGRRYFDLWGRGTLVSVSSASTKGPSVFPLAPSSKSTSGGTAALGCLVKDYFPEPVTVSWNSGALTSGVHTFPAVLQSSGLYSLSSVVTVPSSSLGTQTYICNVNHKPSNTKVDKKVGSGHHHHHH
light: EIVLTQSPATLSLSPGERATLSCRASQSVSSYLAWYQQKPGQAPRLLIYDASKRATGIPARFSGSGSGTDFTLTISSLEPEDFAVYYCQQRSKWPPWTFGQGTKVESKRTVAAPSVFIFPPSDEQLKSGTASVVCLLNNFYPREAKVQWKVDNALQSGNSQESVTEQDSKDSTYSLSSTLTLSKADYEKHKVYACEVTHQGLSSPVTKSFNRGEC
notes: as for B2
Take B4: the half-maximal effective concentration (EC50) in assay [2] is 13.5 nM.

B5: pre-pro-BDNF(-RGR)-T7-His6 (ligand)
chain: HSDPARRGELSVCDSISEWVTAADKKTAVDMSGGTVTVLEKVPVSKGQLKQYFYETKCNPMGYTKEGCRGIDKRHWNSQCRTTQSYVRALTMDSKKRIGWRFIRIDTSCVCTLTIKGSGMASMTGGQQMGHHHHHH
notes: Entry is the pre-pro precursor as expressed (HEK293); values normalized to maturated BDNF; also called pp-BDNF; parental construct
B5: in assay [2], a half-maximal effect (EC50) was put at 8.9 nM.

B6: complex of pre-pro-BDNF(-RGD)_(G4S)2GG_VH<IGF-1R>-CH1-His6, anti-IGF-1R antibody light chain and not-fused pre-pro-BDNF(-RGR)-T7-His6 (other)
heavy: HSDPARRGELSVCDSISEWVTAADKKTAVDMSGGTVTVLEKVPVSKGQLKQYFYETKCNPMGYTKEGCRGIDKRHWNSQCRTTQSYVRALTMDSKKRIGWRFIRIDTSCVCTLTIKGGGGSGGGGSGGQVELVESGGGVVQPGRSQRLSCAASGFTFSSYGMHWVRQAPGKGLEWVAIIWFDGSSTYYADSVRGRFTISRDNSKNTLYLQMNSLRAEDTAVYFCARELGRRYFDLWGRGTLVSVSSASTKGPSVFPLAPSSKSTSGGTAALGCLVKDYFPEPVTVSWNSGALTSGVHTFPAVLQSSGLYSLSSVVTVPSSSLGTQTYICNVNHKPSNTKVDKKVGSGHHHHHH
light: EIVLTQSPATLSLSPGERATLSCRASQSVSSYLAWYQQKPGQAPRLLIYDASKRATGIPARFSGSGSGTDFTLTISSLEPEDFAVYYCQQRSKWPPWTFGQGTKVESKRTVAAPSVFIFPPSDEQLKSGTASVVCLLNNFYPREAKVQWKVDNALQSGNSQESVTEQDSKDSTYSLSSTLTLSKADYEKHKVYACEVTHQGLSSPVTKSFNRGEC
chain: HSDPARRGELSVCDSISEWVTAADKKTAVDMSGGTVTVLEKVPVSKGQLKQYFYETKCNPMGYTKEGCRGIDKRHWNSQCRTTQSYVRALTMDSKKRIGWRFIRIDTSCVCTLTIKGSGMASMTGGQQMGHHHHHH
notes: BDNF-Fab fusion co-expressed with light chain and not-fused BDNF; BDNF entries are pre-pro precursors
Molecule B6 gave a concentration for a half-maximal effect (EC50) in assay [2] of 6.1 nM.
